Patent publication US20230340132A1, “ANTI-ADENOSINE RECEPTOR (A2aR) ANTIBODIES” (NA Biotech Corp, priority 2020, published 2023)
Where “and” joins values, the source holds several entries; their conditions need not be identical. Identical values can stand only once. Entries after “also recorded” stand apart in the source; their conditions may differ. Each block holds one molecule with its values, some of them ahead of it.

Assays:
[1] = molecular target: T1, human adenosine receptor A2A (Homo sapiens, UniProt P29274); assay: flow cytometry-based cell-binding assay, HEK293T-A2A; conditions: for Geo Mean: HEK293T-A2A, duplicate; for binding to human A2aR (in words): summary of Table 12
T1 construct: FLAG
T1 sequence (P29274 whole entry): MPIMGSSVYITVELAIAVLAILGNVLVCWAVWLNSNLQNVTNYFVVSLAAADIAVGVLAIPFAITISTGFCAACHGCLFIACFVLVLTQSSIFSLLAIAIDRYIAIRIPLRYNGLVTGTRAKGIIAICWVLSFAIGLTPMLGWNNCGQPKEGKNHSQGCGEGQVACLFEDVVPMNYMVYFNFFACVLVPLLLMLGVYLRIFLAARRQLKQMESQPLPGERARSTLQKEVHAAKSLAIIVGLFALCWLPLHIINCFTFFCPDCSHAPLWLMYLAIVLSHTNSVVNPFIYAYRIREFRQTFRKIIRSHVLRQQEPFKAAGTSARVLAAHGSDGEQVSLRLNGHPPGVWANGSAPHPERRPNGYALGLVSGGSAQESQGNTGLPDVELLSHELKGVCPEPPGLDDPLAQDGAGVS
Procedure: (§1) To test the specificity of the antigen binding molecules of the invention, e.g., anti-A2aR antibodies or antigen binding fragments thereof to human A2aR and not towards any of the other 3 adenosine receptor family members, a flow cytometry-based cell-binding assay was performed by Multispan Inc (Hayward, CA). HEK293T cells stably expressing various adenosine receptors, i.e., human A1R, A2bR, and A3R, and mouse A2R, generated by Multispan Inc and HEK293T parental cell lines were used in the assay. Briefly, adenosine receptor-overexpressing cell lines and HEK293T parental cell lines were incubated with 2, 10, and 50 nM of anti-human A2aR monoclonal antibodies (clones 1B5-3D7 and 3F6-9G5) and 10 and 50 nM of mouse IgG2a Isotype control at 4° C. in the dark for 60 minutes. Anti-FLAG antibody (Abcam, ab72469, 2 μg/mL) was used as positive control for cell lines over-expressing various adenosine receptors, respectively. After 3 washes with FACS buffer (PBS plus 0.1% BSA and 0.2% sodium azide), cells were stained with an anti-mouse-IgG-PE (Invitrogen, cat. P852) detection antibody for 45 minutes at 4° C. The cells were then washed 3 times with FACS buffer and analyzed on FACSort (Becton Dickinson). Data was analyzed using CellQuest Pro (Becton Dickinson).

parental Expi293 cells [2] = assay: FACS binding titration on parental Expi293 cells; conditions: 12-point 1:2 serial dilution starting from 7.5 ug/ml
Procedure: (§2) Human A2aR-expressing Expi293 cells or parental Expi293 cells were first added to 96-well plate (1×10^5 cells per well). Fifty microliters (50 μl) of 12-point 1:2 serial diluted samples starting from 7.5 ug/ml for each antibody was incubated with cells for 30 minutes on ice. After being washed with FACS buffer (2% Fetal bovine serum in DPBS), […] of Alex Fluor 633-conjugated anti mouse IgG (Life technology, Cat.A21050) or Alex Fluor 647-conjugated anti-human IgG was added and incubated for 30 minutes on ice. Cells were resuspended with 100 μl of FACS buffer after two washes. One hundred microliters 100 μl of 1:50 diluted 7-AAD for live/dead staining was added to the cell suspension, which was ready for FACS analysis (BD Accuri C6 plus or LSR II Flow Cytometer, HTS).

[3] = molecular target: T2, human adenosine receptor A3 (Homo sapiens, UniProt P0DMS8); assay: flow cytometry-based cell-binding assay, HEK293T-A3; conditions: duplicate
T2 construct: FLAG
T2 sequence (P0DMS8 1-318): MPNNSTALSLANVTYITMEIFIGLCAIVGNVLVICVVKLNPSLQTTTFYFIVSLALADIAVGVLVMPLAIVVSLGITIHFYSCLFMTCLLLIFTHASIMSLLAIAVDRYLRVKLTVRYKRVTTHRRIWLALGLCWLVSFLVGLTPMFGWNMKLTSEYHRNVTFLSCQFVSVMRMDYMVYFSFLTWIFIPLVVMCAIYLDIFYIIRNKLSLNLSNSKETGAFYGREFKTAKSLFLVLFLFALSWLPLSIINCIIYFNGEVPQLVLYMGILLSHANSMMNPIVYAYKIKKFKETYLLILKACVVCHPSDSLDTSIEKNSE
Procedure: as §1

human A2aR [4] = molecular target: T3, human A2aR (Homo sapiens, UniProt P29274); assay: FACS binding titration on hA2aR-Expi293 cells; conditions: 12-point 1:2 serial dilution starting from 7.5 ug/ml
T3 construct: expressed in transfected cells; host or cells: Expi293
T3 sequence (P29274 whole entry): as the sequence (P29274 whole entry) above
Procedure: as §2

human A2aR [5] = molecular target: T3, human A2aR; assay: FACS screening of hybridoma clones on human A2aR-expressing Expi293 cells; format: binding; conditions: antibodies from hybridoma clones
Procedure: (§3) Serum titration was performed using Fluorescence-Activated Cell Sorting (FACS) pursuant to standard procedures. Human A2aR-expressing Expi293 cells were first added to 96-well plate (1×10^5 cells per well), 50 μl of serial diluted serum (1:50, 1;150, 1:450, 1:[…], 1:12150) from each individual mouse was incubated with cells for 30 min. on ice. After washing with FACS buffer (2% Fetal bovine serum, 2 mM EDTA in PBS), Alex Fluor 647-conjugated anti mouse IgG was added and incubated for 20 min on ice. Cells were resuspending with 100 μl FACS buffer after two times wash and ready for FACS analysis (BD LSR II Flow Cytometer, HTS). […] (MFI: mean fluorescence intensity).
(§4) Primary screening of the hybridoma supernatants in the 96-well plates was performed using the same FACS procedure as described for serum titration except following changes: 1) Human A2aR-expressing Expi293 cells (expressing GFP) were mixed at 1:1 ratio with parental Expi293 (no A2aR expression) and added to 96-well plates (2×10^5 cells per well), 2) 50 μl hybridoma supernatant transferred from each well of 96-well plates was incubated with cells for 30 min. on ice.
(§5) Sub-cloning was performed by limiting dilution method. In short, the positive wells identified by FACS were seeded into 96-well plate at an average density of 1 cell/well. The […] was placed in incubator for 7-10 days to allow the growth of the cells. The growth of cells was monitored periodically. At about day 4, the wells on the plate were observed under phase contrast microscopy and the wells which appeared to have single colony growing (i.e., only one clumping of hybridomas) were recorded. The cells from the single colony wells were screed by FACS using the same procedure as described for primary screening of hybridoma when the confluence of the cell reached about 50%.

[6] = molecular target: T4, mouse adenosine receptor A2A (Mus musculus, UniProt Q60613); assay: flow cytometry-based cell-binding assay, HEK293T-mA2A; conditions: duplicate
T4 construct: FLAG
T4 sequence (Q60613 whole entry): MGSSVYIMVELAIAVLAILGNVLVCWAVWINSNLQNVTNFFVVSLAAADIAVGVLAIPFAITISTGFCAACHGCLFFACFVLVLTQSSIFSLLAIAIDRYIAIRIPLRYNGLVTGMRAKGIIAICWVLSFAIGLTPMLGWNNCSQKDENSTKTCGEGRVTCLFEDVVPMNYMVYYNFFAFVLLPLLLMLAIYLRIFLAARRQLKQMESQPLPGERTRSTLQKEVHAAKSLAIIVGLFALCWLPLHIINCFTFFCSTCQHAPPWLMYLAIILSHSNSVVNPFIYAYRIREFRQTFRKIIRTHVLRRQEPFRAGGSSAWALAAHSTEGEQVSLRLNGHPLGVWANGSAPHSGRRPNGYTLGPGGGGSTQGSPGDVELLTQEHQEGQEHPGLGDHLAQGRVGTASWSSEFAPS
Procedure: as §1

[7] = molecular target: T5, human adenosine receptor A1 (Homo sapiens, UniProt P30542); assay: flow cytometry-based cell-binding assay, HEK293T-A1; conditions: for Geo Mean: HEK293T-A1, duplicate; for binding to HEK293T-A1 relative to binding to human A2aR (in words): summary of Table 12
T5 construct: FLAG
T5 sequence (P30542 1-326): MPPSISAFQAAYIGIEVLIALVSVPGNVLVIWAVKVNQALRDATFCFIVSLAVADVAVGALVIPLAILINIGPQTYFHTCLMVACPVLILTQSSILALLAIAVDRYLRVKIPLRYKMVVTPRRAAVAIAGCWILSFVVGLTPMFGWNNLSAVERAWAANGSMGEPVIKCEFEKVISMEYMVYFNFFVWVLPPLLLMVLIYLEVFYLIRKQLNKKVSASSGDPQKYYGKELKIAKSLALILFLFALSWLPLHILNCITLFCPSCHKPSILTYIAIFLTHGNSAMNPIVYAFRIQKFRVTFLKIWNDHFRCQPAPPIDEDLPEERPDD
Procedure: as §1

parental Expi293 cells [8] = assay: FACS screening of hybridoma clones on parental Expi293 cells; format: binding; conditions: antibodies from hybridoma clones
Procedure: as §3, §4, §5

Geo Mean ([1]; 2 nM): 97.49 and 95.04
Geo Mean ([1]; 10 nM): 261.79 and 221.91
Geo Mean ([1]; 50 nM): 260.67 and 377.56
binding to human A2aR (in words) [1]: specifically bound to human A2aR
Geo Mean ([3]; 2 nM): 2.11 and 2.09
Geo Mean ([3]; 10 nM): 2.23 and 2.32
Geo Mean ([3]; 50 nM): 2.45 and 2.3
binding to human A2aR-expressing cells (FIG. 2) (human A2aR [5]): specific binding
Geo Mean ([6]; 2 nM): 2.96 and 3.82
Geo Mean ([6]; 10 nM): 4.13 and 6.16
Geo Mean ([6]; 50 nM): 3.48 and 6.03
Geo Mean ([7]; 2 nM): 10.15 and 11.83
Geo Mean ([7]; 10 nM): 18.4 and 24.97
Geo Mean ([7]; 50 nM): 27.59 and 30.66
binding to HEK293T-A1 relative to binding to human A2aR (in words) [7]: significantly weaker
B1: anti-human A2aR monoclonal antibody 1B5-3D7 (antibody, V domains shown)
VH: QVQLQQPGTELVKPGAPVKLSCKTSGFTFTRFWMNWVRQRPGRGLEWIGRIDPYDSETQYNHKFWDRATLTVDKSSSTVYIQLSSLTSEDSAVYYCGRSLYGKGDYWGQGTTLTVSS
VL: DVLMTQSPLSLPVSLGDQASISCRSSQSIVHSNGNTYLEWYLQRPGQSPKLLIYKVSNRFSGVPDRFSGSGSGTYFTLRISRVEAEDLGIYYCFQGSHVPLTFGSGTTLELK
notes: Tested as whole mouse IgG2a / kappa, purified from hybridoma supernatant or made recombinantly in Expi293 cells; also called 1B-3D7
binding to parental Expi293 (FIG. 5) (parental Expi293 cells [2]): not to parental Expi293
binding to hA2aR-Expi293 (FIG. 5) (human A2aR [4]): strong dose-dependent specific binding; also recorded: specifically binds
binding to parental Expi293 cells (FIG. 2) (parental Expi293 cells [8]): not to parental Expi293 cells

B2: 3F6-9G5: anti-human A2aR monoclonal antibody from mouse hybridoma clone; HCVR SEQ ID NO: 36, LCVR SEQ ID NO: 42 (antibody, V domains shown)
VH: QVQLQQPGTELVKPGAPVRLSCKASGFAFTSYWMNWVRQRPGRGLEWIGRIDPSDSEAHYHHKFWGKATLTVDKSSSTVYIQLNGLTSEDSAVYYCLRSLYGKGDYWGHGTTLTVSS
VL: DVLMTQTPLSLSVRLGDQASISCRSSQSLVHRNGNTYLEWYLQRPGQSPKLLIYKVSNRFSGVPDRFSGSGSGTDFTLKISRVEAEDLGVYYCYQGSHVPLTFGSGTKLEIK
Geo Mean ([1]; 2 nM): 112.47 and 109.2
Geo Mean ([1]; 10 nM): 273.51 and 290.29
Geo Mean ([1]; 50 nM): 270 and 289.37
binding to human A2aR (in words) [1]: specifically bound to human A2aR
binding to parental Expi293 (FIG. 5) (parental Expi293 cells [2]): not to parental Expi293
Geo Mean ([3]; 2 nM): 2.07 and 1.96
Geo Mean ([3]; 10 nM): 2.49 and 2.33
Geo Mean ([3]; 50 nM): 2.66 and 2.25
binding to hA2aR-Expi293 (FIG. 5) (human A2aR [4]): strong dose-dependent specific binding; also recorded: specifically binds
binding to human A2aR-expressing cells (FIG. 2) (human A2aR [5]): specific binding
Geo Mean ([6]; 2 nM): 2.9 and 3.08
Geo Mean ([6]; 10 nM): 3.7 and 3.25
Geo Mean ([6]; 50 nM): 4.98 and 4.76
Geo Mean ([7]; 2 nM): 8.35 and 8.81
Geo Mean ([7]; 10 nM): 15.26 and 15.56
Geo Mean ([7]; 50 nM): 22.97 and 22.51
binding to HEK293T-A1 relative to binding to human A2aR (in words) [7]: significantly weaker
binding to parental Expi293 cells (FIG. 2) (parental Expi293 cells [8]): not to parental Expi293 cells
